We go through 13 substances from US6416738.

Experiment [1] has as its target Biotinylated NR-LU-10 (lysine). The experiment can be described thus: cell-based or functional assay.
The target in experiment [2] is Biotinylated NR-LU-10 (thiol). The experiment can be described thus: cell-based or functional assay.
Experiment [3] has as its target Avidin (UniProt P02701). The experiment can be described thus: binding of radioiodinated biotinylated antibody to avidin-agarose.
For experiment [4], the target named is NR-LU-10 antigen (approximately 40 kilodalton glycoprotein antigen expressed on most carcinomas) (human) (UniProt P16422). The experiment can be described thus: limiting antigen ELISA, percent of native NR-LU-10.
Experiment [5] has as its target NR-LU-10 antigen on LS-180 tumor cells (human) (UniProt P16422). Nature of the experiment: binding to LS-180 tumor cells at antigen excess, percent of native NR-LU-10.
In experiment [6] the target is Avidin (UniProt P02701). The experiment can be described thus: residual circulating radiolabeled antibody after avidin injection in mice, examined in vitro on immobilized biotin.
Experiment [7] concerns the target NR-LU-10 antigen (approximately 40 kilodalton glycoprotein antigen expressed on most carcinomas) (human) (UniProt P16422). The experiment can be described thus: ELISA, percent of native NR-LU-10 (thiol biotinylation). For orientation: In an ELISA, binding on a coated surface is turned into a signal by an enzyme label.
The target in experiment [8] is NR-LU-10 antigen on LS-180 tumor cells (human) (UniProt P16422). The experiment can be described thus: cell binding, percent of native NR-LU-10 (LS-180 cells as described for Table 2).
The target of the next experiment is Streptavidin (UniProt P22629). The experiment can be described thus: 20 ug radiolabeled protein with 400 ul streptavidin-agarose beads, spun and washed, counted.
Streptavidin, sequence (P22629 37-163 limits assumed): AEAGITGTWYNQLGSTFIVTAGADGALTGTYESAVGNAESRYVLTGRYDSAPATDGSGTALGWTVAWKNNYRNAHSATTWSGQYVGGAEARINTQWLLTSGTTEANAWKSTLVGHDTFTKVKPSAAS

NR-LU-10 antigen (approximately 40 kilodalton glycoprotein antigen expressed on most carcinomas) (human), sequence (P16422 24-314): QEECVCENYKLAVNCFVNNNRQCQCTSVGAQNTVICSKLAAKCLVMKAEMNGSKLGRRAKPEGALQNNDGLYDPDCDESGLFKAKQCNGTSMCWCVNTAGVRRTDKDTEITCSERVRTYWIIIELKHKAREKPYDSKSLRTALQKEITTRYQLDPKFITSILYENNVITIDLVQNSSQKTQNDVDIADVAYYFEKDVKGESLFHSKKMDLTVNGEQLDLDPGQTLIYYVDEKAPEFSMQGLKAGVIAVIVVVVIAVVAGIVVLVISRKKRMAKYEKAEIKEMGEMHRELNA
NR-LU-10 antigen on LS-180 tumor cells (human), sequence (P16422 24-314): as above
Avidin, sequence (P02701 25-152 limits assumed): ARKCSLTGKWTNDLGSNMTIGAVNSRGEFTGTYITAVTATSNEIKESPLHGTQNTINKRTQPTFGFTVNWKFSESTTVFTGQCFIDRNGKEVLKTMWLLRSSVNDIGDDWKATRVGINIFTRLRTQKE

Substance Avidin (from UniProt P02701 25-152) gave a blood pool concentration of biotinylated antibody in mice after avidin administration in experiment [1] of 10 fold. The same substance showed a circulating antibody level in mice after avidin administration (% of injected dose) in [2] of 35. The substance “Biotinylated NR-LU-10 (lysine) (antibody)” returned a % specific binding to immobilized avidin-agarose with Avidin [3] of 98%. Take “Biotinylated NR-LU-10 (lysine), molar offering 5:1, measured 3.4 biotins/Ab (antibody)”: the Immunoassessment (%) ELISA, immunoreactivity as compared to native antibody in experiment [4] amounted to 86%.

Turning to “Biotinylated NR-LU-10 (lysine), molar offering 10:1, measured 8.5 biotins/Ab (antibody)”, the Immunoassessment (%) ELISA, immunoreactivity as compared to native antibody in [4] stood at 73%. For the same substance, in experiment [5], the Immunoassessment (%) Cell Binding is 100%. For “Biotinylated NR-LU-10 (lysine), molar offering 13:1, measured 11.1 biotins/Ab (antibody)” the same measures were 69% and 102%.

On to “Biotinylated NR-LU-10 (lysine), molar offering 20:1, measured 13.4 biotins/Ab (antibody)”, for which the Immunoassessment (%) ELISA, immunoreactivity as compared to native antibody in experiment [4] turned out to be 36%. The Immunoassessment (%) Cell Binding in experiment [5] was 106%.

In the case of “Biotinylated NR-LU-10 (lysine), molar offering 40:1, measured 23.1 biotins/Ab (antibody)”, the Immunoassessment (%) ELISA, immunoreactivity as compared to native antibody in experiment [4] turned out to be 27%. “Biotinylated NR-LU-10 (thiol) (antibody)” came in with a % specific binding to immobilized avidin-agarose in the experiment with Avidin [3] of 98%. For the same substance, the % of biotinylated antibody complexed with avidin with Avidin [6] amounted to 85%. For the substance “Biotinylated NR-LU-10 (thiol), molar offering 10:1, measured 4.7 biotins/Ab (antibody)”, in experiment [7], the Immunoassessment (%) ELISA, immunoreactivity as compared to native antibody came out at 114%. “Biotinylated NR-LU-10 (thiol), molar offering 50:1, measured 6.5 biotins/Ab (antibody)”: in experiment [7], the Immunoassessment (%) ELISA, immunoreactivity as compared to native antibody came out at 102%. For the same substance, the Immunoassessment (%) Cell Binding in experiment [8] stood at 100%. The corresponding values for “Biotinylated NR-LU-10 (thiol), molar offering 100:1, measured 6.1 biotins/Ab (antibody)” are 95% and 100%. For “Biotinylated human asialoorosomucoid (from UniProt P02763 19-201)”, in the experiment with Streptavidin, the % radioactivity in Pellet (bound to streptavidin-agarose) worked out at 90% and the % radioactivity in Supernatant (not bound to streptavidin-agarose) came to 10%. The corresponding values for “Biotinylated human orosomucoid, PIP-125-labeled (from UniProt P02763 19-201)” are 92% and 7.7%.
